According to paper PMC5708649, “A novel Porphyromonas gingivalis enzyme: An atypical dipeptidyl peptidase III with an ARM repeat domain” (PLoS ONE, 2017):

Columns and labels:
[1] = tested on: N=C(N)NCCC[C@H](NC(=O)[C@@H](N)CCCNC(=N)N)C(=O)Nc1ccc2ccccc2c1; test: purified protein, by the assay type; settings: pH 8.0; 26.0 °C
[2] = tested on: Cc1cc(=O)oc2cc(NC(=O)[C@H](CCCNC(=N)N)NC(=O)[C@@H](N)CCCNC(=N)N)ccc12; test: purified protein, by the assay type; settings: pH 8.0; 26.0 °C

**Q.** What does the source list for “DPP III fragment (1–679 aa) (Porphyromonas gingivalis W83)”?
**A.** Km [1]: 4.37 ± 0.42 µM; kcat [1]: 0.0032 ± 0.0005 s⁻¹; kcat/Km [1]: 732 M⁻¹ s⁻¹; Km [2]: 9.97 ± 0.44 µM; kcat [2]: 0.0024 ± 0.0014 s⁻¹; kcat/Km [2]: 241 M⁻¹ s⁻¹
